Source: publication PMC2141704

Target: GST-mouse ZO-1 (1–862 amino acids) (mouse) (UniProt P39447)
Test: pull-down

UniProt P39447, sequence (P39447 1-862): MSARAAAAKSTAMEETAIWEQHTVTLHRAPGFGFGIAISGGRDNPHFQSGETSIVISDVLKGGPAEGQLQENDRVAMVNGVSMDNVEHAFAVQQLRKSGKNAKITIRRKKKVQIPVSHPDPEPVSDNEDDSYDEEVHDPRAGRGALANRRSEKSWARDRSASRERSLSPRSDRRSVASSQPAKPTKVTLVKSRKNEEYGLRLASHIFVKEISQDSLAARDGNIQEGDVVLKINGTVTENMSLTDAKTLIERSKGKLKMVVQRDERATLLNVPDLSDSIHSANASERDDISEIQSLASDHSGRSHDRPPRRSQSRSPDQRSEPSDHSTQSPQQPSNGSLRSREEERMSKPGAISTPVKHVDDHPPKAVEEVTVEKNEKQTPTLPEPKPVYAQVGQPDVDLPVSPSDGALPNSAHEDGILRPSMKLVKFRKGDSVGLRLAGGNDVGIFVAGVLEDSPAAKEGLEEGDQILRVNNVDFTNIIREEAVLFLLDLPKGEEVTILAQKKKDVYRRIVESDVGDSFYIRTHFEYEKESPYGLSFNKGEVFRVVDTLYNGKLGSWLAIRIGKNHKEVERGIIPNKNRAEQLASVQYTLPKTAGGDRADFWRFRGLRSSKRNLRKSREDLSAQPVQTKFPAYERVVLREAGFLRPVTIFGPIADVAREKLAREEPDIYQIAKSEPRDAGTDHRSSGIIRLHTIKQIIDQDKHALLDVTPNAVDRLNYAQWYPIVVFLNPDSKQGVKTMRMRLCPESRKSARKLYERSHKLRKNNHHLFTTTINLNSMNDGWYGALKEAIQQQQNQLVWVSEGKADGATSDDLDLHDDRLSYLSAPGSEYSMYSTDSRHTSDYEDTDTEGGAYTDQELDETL

Kd: 260 nM
Substance: MBP-AF-6 (36–206 amino acids) (domain or fragment)
